Where “and” joins values, the source holds several entries; their conditions need not be identical. Identical values can stand only once.
Legend:
[1] = target: PD-L1 on PD-L1 aAPC/CHO-K1 cells (UniProt Q9NZQ7 19-290); assay: cell-based or functional assay
[2] = target: IGF1R on BxPC3 cells (human, UniProt P08069 31-1367); assay: cell-based or functional assay
[3] = target: T1, IGF1R-ECD-His蛋白 (UniProt P08069 31-935); assay: ELISA, IGF1R-ECD-His coated, HRP-anti-hFc
T1 construct: extracellular domain; Expressed in HEK-293E cells; also called IGF1R抗原
T1 sequence (P08069 31-935): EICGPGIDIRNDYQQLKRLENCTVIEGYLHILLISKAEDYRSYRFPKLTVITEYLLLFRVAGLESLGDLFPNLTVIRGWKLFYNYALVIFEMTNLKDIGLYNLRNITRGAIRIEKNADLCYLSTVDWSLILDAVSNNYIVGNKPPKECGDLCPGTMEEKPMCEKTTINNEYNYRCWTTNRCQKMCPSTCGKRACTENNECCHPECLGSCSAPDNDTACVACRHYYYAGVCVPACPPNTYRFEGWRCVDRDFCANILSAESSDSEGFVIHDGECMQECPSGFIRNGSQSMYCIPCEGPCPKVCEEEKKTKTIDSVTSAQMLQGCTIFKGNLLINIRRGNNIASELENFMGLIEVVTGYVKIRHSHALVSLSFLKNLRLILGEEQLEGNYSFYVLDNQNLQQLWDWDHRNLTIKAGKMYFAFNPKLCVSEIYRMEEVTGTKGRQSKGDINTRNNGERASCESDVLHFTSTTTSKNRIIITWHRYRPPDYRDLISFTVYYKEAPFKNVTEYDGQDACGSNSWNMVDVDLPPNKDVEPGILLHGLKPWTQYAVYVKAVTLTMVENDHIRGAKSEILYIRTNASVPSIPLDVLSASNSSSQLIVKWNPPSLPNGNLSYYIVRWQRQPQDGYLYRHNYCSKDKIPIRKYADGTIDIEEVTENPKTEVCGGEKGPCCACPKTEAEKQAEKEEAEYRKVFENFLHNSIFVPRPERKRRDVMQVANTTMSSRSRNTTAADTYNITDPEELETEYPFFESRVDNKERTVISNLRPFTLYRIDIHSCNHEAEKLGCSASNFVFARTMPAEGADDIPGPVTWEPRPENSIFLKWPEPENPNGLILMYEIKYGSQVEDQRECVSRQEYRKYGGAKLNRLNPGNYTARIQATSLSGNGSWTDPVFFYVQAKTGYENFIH

[4] = target: T2, PDL1-ECD-His蛋白 (UniProt Q9NZQ7 19-238); assay: ELISA, PDL1-ECD-His coated, HRP goat anti-human Fc
T2 construct: extracellular domain; Expressed in HEK-293E cells; also called PD-L1抗原; PDL1抗原
T2 sequence (Q9NZQ7 other isoform, or with tags, fused parts or gaps): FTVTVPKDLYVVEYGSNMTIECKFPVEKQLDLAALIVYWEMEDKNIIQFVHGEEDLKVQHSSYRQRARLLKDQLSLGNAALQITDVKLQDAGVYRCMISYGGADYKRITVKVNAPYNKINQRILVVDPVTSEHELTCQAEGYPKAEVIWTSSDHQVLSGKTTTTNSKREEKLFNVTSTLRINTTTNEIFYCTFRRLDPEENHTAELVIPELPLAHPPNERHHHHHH

[5] = target: T1, IGF1R-ECD-His蛋白; assay: sandwich ELISA: PDL1-ECD-hFc coated, antibody, then IGF1R-ECD-His, HRP-anti-His
[6] = target: T3, PDL1-ECD-hFc蛋白 (UniProt Q9NZQ7 19-238); assay: as above
T3 construct: extracellular domain; PDL1-ECD-His with the C-terminal tag changed to hFc; also called PDL1抗原; not shown: hFc tag at the C-terminus in place of the His tag
T3 sequence (Q9NZQ7 19-238): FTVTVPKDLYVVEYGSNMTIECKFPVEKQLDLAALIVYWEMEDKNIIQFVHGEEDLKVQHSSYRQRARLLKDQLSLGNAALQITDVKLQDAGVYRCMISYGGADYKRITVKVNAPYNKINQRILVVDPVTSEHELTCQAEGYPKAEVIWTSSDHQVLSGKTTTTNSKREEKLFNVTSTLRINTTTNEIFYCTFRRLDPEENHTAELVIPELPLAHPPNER

PD-L1 on PD-L1 aAPC/CHO-K1 cells, sequence (Q9NZQ7 19-290): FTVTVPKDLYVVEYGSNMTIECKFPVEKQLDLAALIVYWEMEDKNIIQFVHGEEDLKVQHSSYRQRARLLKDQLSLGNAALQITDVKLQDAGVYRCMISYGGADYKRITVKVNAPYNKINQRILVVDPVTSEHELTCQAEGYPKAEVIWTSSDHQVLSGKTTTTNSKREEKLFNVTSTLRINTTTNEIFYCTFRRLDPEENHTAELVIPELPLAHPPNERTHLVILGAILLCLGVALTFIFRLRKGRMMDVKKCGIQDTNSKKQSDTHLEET
IGF1R on BxPC3 cells, sequence (P08069 31-1367): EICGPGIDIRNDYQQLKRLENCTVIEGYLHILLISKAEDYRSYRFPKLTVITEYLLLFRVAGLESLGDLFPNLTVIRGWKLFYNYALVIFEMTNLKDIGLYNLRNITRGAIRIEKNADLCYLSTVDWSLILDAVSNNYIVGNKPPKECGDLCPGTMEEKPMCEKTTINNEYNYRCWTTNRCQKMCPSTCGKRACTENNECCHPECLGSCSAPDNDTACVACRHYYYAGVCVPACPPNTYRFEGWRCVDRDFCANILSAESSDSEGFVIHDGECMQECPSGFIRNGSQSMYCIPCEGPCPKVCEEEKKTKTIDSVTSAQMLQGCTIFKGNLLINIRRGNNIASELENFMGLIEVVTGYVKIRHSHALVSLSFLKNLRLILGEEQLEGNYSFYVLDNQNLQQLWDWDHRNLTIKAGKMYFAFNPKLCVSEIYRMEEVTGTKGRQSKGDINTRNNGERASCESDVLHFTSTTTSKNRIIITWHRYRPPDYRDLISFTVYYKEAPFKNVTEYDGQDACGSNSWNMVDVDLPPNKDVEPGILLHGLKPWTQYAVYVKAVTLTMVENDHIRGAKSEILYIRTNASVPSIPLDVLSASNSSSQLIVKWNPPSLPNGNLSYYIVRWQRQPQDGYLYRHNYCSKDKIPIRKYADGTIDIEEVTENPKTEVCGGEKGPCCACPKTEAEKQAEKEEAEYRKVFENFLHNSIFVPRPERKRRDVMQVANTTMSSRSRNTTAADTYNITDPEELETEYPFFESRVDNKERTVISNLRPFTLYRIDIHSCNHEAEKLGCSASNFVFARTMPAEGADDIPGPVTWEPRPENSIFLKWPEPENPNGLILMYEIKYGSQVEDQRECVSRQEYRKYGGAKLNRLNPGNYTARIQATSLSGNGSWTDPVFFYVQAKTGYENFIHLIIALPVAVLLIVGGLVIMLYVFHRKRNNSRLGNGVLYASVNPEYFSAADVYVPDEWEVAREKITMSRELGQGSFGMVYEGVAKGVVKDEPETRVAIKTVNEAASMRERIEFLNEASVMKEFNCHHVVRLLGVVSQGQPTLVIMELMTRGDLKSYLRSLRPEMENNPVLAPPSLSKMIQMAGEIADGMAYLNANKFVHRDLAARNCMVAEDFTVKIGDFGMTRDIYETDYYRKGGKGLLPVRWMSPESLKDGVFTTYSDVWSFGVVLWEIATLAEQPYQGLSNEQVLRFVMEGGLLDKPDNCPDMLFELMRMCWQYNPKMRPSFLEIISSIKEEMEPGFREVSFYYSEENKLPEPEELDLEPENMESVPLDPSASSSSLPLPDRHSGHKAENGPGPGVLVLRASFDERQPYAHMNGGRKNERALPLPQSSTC

Binder | EC50, PD-1/PD-L1 Blockade Bioassay (luciferase reporter) [1] | IC50, inhibition of BxPC3 proliferation with IGF-1 100 ng/mL (CCK8) [2] | EC50 [3] | EC50 [4] | binding result [5] | binding result [6]
抗PDL1×IGF1R双特异性抗体 D31-1 (bispecific antibody, human IgG1, lambda, A12 IgG1 with anti-PDL1 scFv1 (VL-L1-VH) at the C-terminus of each heavy chain) heavy: not shown light: SSELTQDPAVSVALGQTVRITCQGDSLRSYYATWYQQKPGQAPILVIYGENKRPSGIPDRFSGSSSGNTASLTITGAQAEDEADYYCKSRDGSGQHLVFGGGTKLTVLGQPKAAPSVTLFPPSSEELQANKATLVCLISDFYPGAVTVAWKADSSPVKAGVETTTPSKQSNNKYAASSYLSLTPEQWKSHRSYSCQVTHEGSTVEKTVAPAECS | 2.98 nM | 1.96 nM | 0.193 nM | 0.391 nM |  | 
抗PD-L1单抗(anti-PDL1 mAb) (antibody, human IgG1, kappa, V domains shown, also called 抗人PD-L1单抗) VH: QVQLQQSGGGLVKPSQSLSLTCTVSGFSLTSYGVHWVRQPPGKGLEWIGLIWSGGGTDYNPSLKSRLTISRDTSKNQVSFKISSLTAADTAVYYCARQLGLRAMDYWGQGTSVTVSS VL: EIVLTQSPDFLSVTPKEKVTITCRASQSIGTTIHWYQQKPDQSPKLLIKYASQSFSGVPSRFSGSGSGTDFTLTINSVEAEDAATYYCQQSNSWPLTFGAGTKLEIKR | 0.363 nM and 0.901 nM |  |  | 0.0836 nM and 0.145 nM | no binding (tested: 起始浓度为30nM) | 
抗PDL1×IGF1R双特异性抗体 D31-2 (bispecific antibody, human IgG1, lambda, A12 IgG1 with anti-PDL1 scFv2 (VH-L1-VL) at the C-terminus of each heavy chain) heavy: not shown light: SSELTQDPAVSVALGQTVRITCQGDSLRSYYATWYQQKPGQAPILVIYGENKRPSGIPDRFSGSSSGNTASLTITGAQAEDEADYYCKSRDGSGQHLVFGGGTKLTVLGQPKAAPSVTLFPPSSEELQANKATLVCLISDFYPGAVTVAWKADSSPVKAGVETTTPSKQSNNKYAASSYLSLTPEQWKSHRSYSCQVTHEGSTVEKTVAPAECS | 1.75 nM | 2.51 nM | 0.185 nM | 0.296 nM |  | 
抗PDL1×IGF1R双特异性抗体 D31-3 (bispecific antibody, human IgG1, lambda, A12 IgG1 with anti-PDL1 scFv2 at the N-terminus of each heavy chain) heavy: not shown light: SSELTQDPAVSVALGQTVRITCQGDSLRSYYATWYQQKPGQAPILVIYGENKRPSGIPDRFSGSSSGNTASLTITGAQAEDEADYYCKSRDGSGQHLVFGGGTKLTVLGQPKAAPSVTLFPPSSEELQANKATLVCLISDFYPGAVTVAWKADSSPVKAGVETTTPSKQSNNKYAASSYLSLTPEQWKSHRSYSCQVTHEGSTVEKTVAPAECS | 1.83 nM | 47.7 nM | 0.315 nM | 0.301 nM |  | 
抗PDL1×IGF1R双特异性抗体 D31-4 (bispecific antibody, human IgG1, lambda, A12 IgG1 with anti-PDL1 scFv1 at the N-terminus of each heavy chain) heavy: not shown light: SSELTQDPAVSVALGQTVRITCQGDSLRSYYATWYQQKPGQAPILVIYGENKRPSGIPDRFSGSSSGNTASLTITGAQAEDEADYYCKSRDGSGQHLVFGGGTKLTVLGQPKAAPSVTLFPPSSEELQANKATLVCLISDFYPGAVTVAWKADSSPVKAGVETTTPSKQSNNKYAASSYLSLTPEQWKSHRSYSCQVTHEGSTVEKTVAPAECS | 1.31 nM | 16.5 nM | 0.249 nM | 0.249 nM |  | 
抗IGF1R单抗 A12 (antibody, human IgG1, lambda, V domains shown, also called anti-IGF1RmAb; 抗IGF1R抗体A12) VH: EVQLVQSGAEVKKPGSSVKVSCKASGGTFSSYAISWVRQAPGQGLEWMGGIIPIFGTANYAQKFQGRVTITADKSTSTAYMELSSLRSEDTAVYYCARAPLRFLEWSTQDHYYYYYMDVWGKGTTVTVSS VL: SSELTQDPAVSVALGQTVRITCQGDSLRSYYATWYQQKPGQAPILVIYGENKRPSGIPDRFSGSSSGNTASLTITGAQAEDEADYYCKSRDGSGQHLVFGGGTKLTVLG |  | 6.77 nM and 14 nM | 0.157 nM and 0.0676 nM |  |  | no binding (tested: 起始浓度为30nM)
抗PDL1×IGF1R双特异性抗体 D31-5 (bispecific antibody, human IgG1, kappa, Anti-PDL1 IgG1 with A12 scFv1 (VL-L1-VH) at the C-terminus of each heavy chain) heavy: not shown light: EIVLTQSPDFLSVTPKEKVTITCRASQSIGTTIHWYQQKPDQSPKLLIKYASQSFSGVPSRFSGSGSGTDFTLTINSVEAEDAATYYCQQSNSWPLTFGAGTKLEIKRTVAAPSVFIFPPSDEQLKSGTASVVCLLNNFYPREAKVQWKVDNALQSGNSQESVTEQDSKDSTYSLSSTLTLSKADYEKHKVYACEVTHQGLSSPVTKSFNRGEC | 0.401 nM | 39.6 nM | 0.137 nM | 0.0858 nM |  | 
抗PDL1×IGF1R双特异性抗体 D31-6 (bispecific antibody, human IgG1, kappa, Anti-PDL1 IgG1 with A12 scFv2 (VH-L1-VL) at the C-terminus of each heavy chain) heavy: not shown light: EIVLTQSPDFLSVTPKEKVTITCRASQSIGTTIHWYQQKPDQSPKLLIKYASQSFSGVPSRFSGSGSGTDFTLTINSVEAEDAATYYCQQSNSWPLTFGAGTKLEIKRTVAAPSVFIFPPSDEQLKSGTASVVCLLNNFYPREAKVQWKVDNALQSGNSQESVTEQDSKDSTYSLSSTLTLSKADYEKHKVYACEVTHQGLSSPVTKSFNRGEC | 0.336 nM | 67 nM | 0.0961 nM | 0.079 nM |  | 
抗PDL1×IGF1R双特异性抗体 D31-7 (bispecific antibody, human IgG1, kappa, Anti-PDL1 IgG1 with A12 scFv2 at the N-terminus of each heavy chain) heavy: not shown light: EIVLTQSPDFLSVTPKEKVTITCRASQSIGTTIHWYQQKPDQSPKLLIKYASQSFSGVPSRFSGSGSGTDFTLTINSVEAEDAATYYCQQSNSWPLTFGAGTKLEIKRTVAAPSVFIFPPSDEQLKSGTASVVCLLNNFYPREAKVQWKVDNALQSGNSQESVTEQDSKDSTYSLSSTLTLSKADYEKHKVYACEVTHQGLSSPVTKSFNRGEC | 0.496 nM | 20.5 nM | 0.0648 nM | 0.0749 nM |  | 
抗PDL1×IGF1R双特异性抗体 D31-8 (bispecific antibody, human IgG1, kappa, Anti-PDL1 IgG1 with A12 scFv1 at the N-terminus of each heavy chain) heavy: not shown light: EIVLTQSPDFLSVTPKEKVTITCRASQSIGTTIHWYQQKPDQSPKLLIKYASQSFSGVPSRFSGSGSGTDFTLTINSVEAEDAATYYCQQSNSWPLTFGAGTKLEIKRTVAAPSVFIFPPSDEQLKSGTASVVCLLNNFYPREAKVQWKVDNALQSGNSQESVTEQDSKDSTYSLSSTLTLSKADYEKHKVYACEVTHQGLSSPVTKSFNRGEC | 0.391 nM | 5.62 nM | 0.0465 nM | 0.0572 nM |  | 

Reference: patent CN116496403A (ZEDA BIOMEDICAL CO LTD, dated 2023)
